# Measurements as given in patent publication US20240398896A1, “INFLAMMASOME INHIBITION” (National University of Singapore, priority 2021, published 2024).
# B1: bat ASC2: ASC2 (PYRIN-only protein) of the bat Pteropus alecto, SEQ ID NO:11; expressed from vectors or as Dox-inducible transgene (protein)
# chain: MGKKRDAILEALENLTADELKKFKLKLGAAPLRQGFRNIPRGALGPLDAVDLTDKLVAFYCEDYGAELTAVVLRDIGMQEEAERLQGVA
# Experiments:
# NLRP3 inflammasome [1] = target: T1, NLRP3 inflammasome (Homo sapiens, UniProt Q9ULZ3); test: Inflammasome activation in LPS-primed THP-1 macrophages stably expressing ASC2, stimulated with MSU crystals; assay type: cell-based; parameters: endogenous in cells; host or cells: THP-1 macrophages (PMA-differentiated, LPS-primed); settings: LPS 3 h, MSU crystals 4 h
# Description: (§1) Generation of THP-1 and IMACs stable cells. […] Single cell clones were generated for THP-1 cells stably expressing ASC2-LSSmOrange.
# (§2) Inflammasome activation assays.
# NLRP3 inflammasome [2] = target: T1, NLRP3 inflammasome; test: Inflammasome activation in LPS-primed THP-1 macrophages stably expressing ASC2, stimulated with nigericin; assay type: cell-based; parameters: endogenous in cells; host or cells: THP-1 macrophages (PMA-differentiated, LPS-primed); settings: THP-1 macrophages, ASC2-LSSmOrange, LPS 3 h
# Description: as §1, §2
# ImageStream imaging flow cytometry.
# [3] = tested on: peritonitis induced by ASC specks; test: Peritonitis induced by ASC specks in bat ASC2/rtTA mice; assay type: in vivo, mouse; settings: bat ASC2/rtTA vs WT mice, oral Dox 7 days, ASC-mPlum specks i.p., 4 h
# human ASC = target: T2, human ASC (Homo sapiens, UniProt Q9ULZ3); test: Co-immunoprecipitation of ASC2-His with human ASC-Flag from HEK293T cells; assay type: binding; settings: 0.25 μg bat or hupa4 ASC2 vs 3 μg human ASC2 transfected, FIG. 26A
# T2 construct: expressed in transfected cells; host or cells: HEK293T
# Procedure: Co-immunoprecipitation. HEK293T cells were transfected in 6-well plate with plasmids encoding His-tagged empty vector (His alone), bat ASC2, human ASC2, and Hupa4 ASC2 along with Flag-tagged human or bat ASC. 3 μg human ASC2, in contrast to 0.25 μg control, bat or hupa4 ASC2, were transfected to normalize the expression. At 48 h post-transfection, cells were lysed in IP lysis buffer (Pierce) according to manufacturer's protocol and centrifuged at 500 g for 10 minutes at 4° C. The supernatants were subjected to immunoprecipitation by incubation for 16 hours at 4° C. with anti-Flag (Sigma) incubated magnetic beads, followed by washing three times with TBS containing 0.05% Tween 20 and once with purified water. Bound proteins were separated by 15% SDS-PAGE, followed by immunoblotting analysis with the indicated antibodies.
# AIM2 inflammasome [4] = target: T3, AIM2 inflammasome (Homo sapiens, UniProt Q9ULZ3); test: ASC speck formation in HEK293T cells reconstituted with human AIM2-mCitrine and human ASC-mPlum (ImageStream); assay type: cell-based; parameters: expressed in transfected cells; host or cells: HEK293T; settings: FIG. 3D
# Description: as §2
# ImageStream imaging flow cytometry. […] Nuclei were stained with DAPI.
# AIM2 inflammasome [5] = target: T3, AIM2 inflammasome; test: Inflammasome activation in LPS-primed THP-1 macrophages stably expressing ASC2, transfected with poly(dA:dT); assay type: cell-based; parameters: endogenous in cells; host or cells: THP-1 macrophages (PMA-differentiated, LPS-primed, poly(dA:dT)-transfected); settings: LPS 3 h, poly(dA:dT) 4 h
# Description: as §1, §2
# [6] = target: T4, PYD-PYD interaction of human ASC (Homo sapiens, UniProt Q9ULZ3); test: NanoBiT inhibition assay of PYD-PYD interaction in HEK293T cells; assay type: cell-based; settings: LgBiT/SmBiT-tagged PYD pairs 10 or 1 ng each, bat ASC2-LSSmOrange 10 ng, FIG. 19, 20
# T4 construct: Human ASC PYRIN domain (PYD) was PCR amplified; linker […]; expressed in transfected cells; host or cells: HEK293T
# Description: Plasmids. Vectors were constructed by standard molecular cloning with pcDNA3.1 (+) as the backbone. Restriction enzyme sites used include NheI, AgeI (introduced), HindIII, BamHI, XhoI, and XbaI from 5′ to 3′ sequentially. […]. The N-terminal and C-terminal inserts of human ASC PYD or NanoBiT tags were flanked by AgeI/HindIII and BamHI/XhoI, respectively. The linker (GSSGGGGSGGGGSSG) flanked by HindIII/BamHI and C-terminal His10-tag flanked by XhoI/XbaI was oligo annealed. The gene fragments were introduced into the backbone by single, double, or triple insertions. The resulting vectors were sequenced using CMV-F and BGH-rev primers.
# Cell Culture and Transfection. HEK293T cells were cultured in modified Eagle's medium (DMEM) with 10% fetal bovine serum in humidified 37° C. incubator with 5% CO2. Cells were seeded at a density of 3×10^5 cells/mL one day prior to transient transfection using Fugene 6 transfection reagent (Promega) according to the manufacturer's instructions. At 24 h post-transfection, cells are harvested for analyses.
# NanoBiT and Inhibition Assay. White opaque plates were coated with 50 μL of 0.001% poly-L-lysine for at least 15 min at 37° C. and air-dried before seeding 3×10^5 cells/mL HEK239T cells. […] Luminescence is immediately quantified using BioTek Cytation 5 with a gain of 135 and an integration time of 1 s.
# [7] = tested on: peritonitis induced by MSU crystals; test: Peritonitis induced by MSU crystals in bat ASC2/rtTA mice; assay type: in vivo, mouse; settings: bat ASC2/rtTA vs WT mice, oral Dox 7 days, 200 μg MSU crystals i.p., 4 h
# NLRP1 inflammasome = NLRP1 inflammasome (Homo sapiens, UniProt Q9ULZ3); test: Talabostat-induced inflammasome activation in N/TERT-1 keratinocytes stably expressing ASC2-mCitrine
# Procedure: (§3) Immortalized N/TERT-1 keratinocyte were cultured in KSFM media (Gibco) supplemented with 30 g/ml BPE, 0.1 ng/ml rEGF, and 0.3 mM calcium chloride.
# (§4) GP2-293 cells stably expressing gag and pol proteins, were co-transfected with pVSV-G envelope vector and mCitrine-only empty vector, bat or human ASC2-mCitirine pQCXIH vector for 48 h. Supernatants containing retroviruses were collected, centrifuged at 500 g for 10 min. N/TERT-1 cells were transduced with low MOI of retrovirus for 24 h to obtain a single viral copy per transduced cell. 72 h post-transduction, cells were selected by 20 μg/mL Hygromycin B antibiotic for at least 1 week to ensure stable expression. The stable cells were FACS-sorted for equal fluorescent intensity to ensure the same expression levels across cell lines.
# (§5) Inflammasome activation assay. N/TERT-1 cells in KSFM without antibiotics were seeded at 1.8×10^5/mL into 96-well plates overnight. Cells were treated with various concentrations (0, 20, 200 μM) of talabostat dissolved in DMSO for 24 h. DMSO concentration is controlled at 0.5% for all treated wells.
# [8] = target: NLRP1 inflammasome (Homo sapiens); test: as above; settings: N/TERT-1, talabostat 0, 20, 200 μM, 24 h; FIG. 25B
# Procedure: as §3, §4, §5
# Zika virus (ZIKV) = assay type: cell-based, mouse; settings: bat ASC2/rtTA vs WT BMDMs, ZIKV MOI=1, 24 h, Dox; FIG. 10F
# T3 sequence (Q9ULZ3 whole entry): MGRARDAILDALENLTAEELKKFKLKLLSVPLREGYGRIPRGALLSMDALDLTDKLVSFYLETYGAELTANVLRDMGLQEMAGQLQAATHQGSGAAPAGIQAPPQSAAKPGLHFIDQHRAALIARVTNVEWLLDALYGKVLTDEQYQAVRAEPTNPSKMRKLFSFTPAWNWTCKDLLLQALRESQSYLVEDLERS
# T1 sequence (Q9ULZ3 whole entry): as above
# NLRP1 inflammasome, sequence (Q9ULZ3 whole entry): as above
# T4 sequence (Q9ULZ3 1-91 limits assumed): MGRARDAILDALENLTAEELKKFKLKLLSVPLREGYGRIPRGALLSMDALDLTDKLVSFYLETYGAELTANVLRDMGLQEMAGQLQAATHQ
# NLRP1 inflammasome (Homo sapiens), sequence (Q9ULZ3 whole entry): as the sequence (Q9ULZ3 whole entry) above
# T2 sequence (Q9ULZ3 whole entry): as above
molecule,measurement,setting,value
B1,Cell death (LDH release),NLRP3 inflammasome [1]; FIG. 4D,inhibited
same,IL-1β secretion,NLRP3 inflammasome [1]; FIG. 4E,inhibited
same,Pyroptotic cell death (LDH release),"NLRP3 inflammasome [2]; nigericin 2 h, compared with human ASC2, FIG. 3E",significantly more downstream inhibition
same,Secretion of IL-1β in the supernatants,"NLRP3 inflammasome [2]; nigericin 2 h, compared with human ASC2, FIG. 3F",significantly more downstream inhibition
same,Induction of ASC specks,"NLRP3 inflammasome [2]; nigericin, FIG. 4B, 4C",inhibited the induction of ASC specks more potently than human ASC2
same,Recruitment of neutrophils (peritoneal lavage),[3]; FIG. 8E,suppressed
same,IL-1β release (peritoneal lavage),[3]; FIG. 8F,suppressed
same,Interaction with human ASC (co-IP),human ASC,interact strongly with human ASC
same,ASC speck formation (human AIM2 inflammasome activation),"AIM2 inflammasome [4]; HEK293T, human AIM2-mCitrine, human ASC-mPlum, ASC2-LSSmOrange",suppressed the activation
same,Potency in inhibiting human AIM2 inflammasome compared with human ASC2,AIM2 inflammasome [4]; expression normalized by gating equal signal intensity,significantly more potent
same,Cell death (LDH release),AIM2 inflammasome [5]; FIG. 3G,inhibited
same,IL-1β secretion,AIM2 inflammasome [5]; FIG. 3H,inhibited
same,PYD-PYD protein-protein interaction (NanoBiT luminescence signal),[6],inhibit PYD-PYD protein-protein interaction
same,Recruitment of neutrophils and inflammatory monocytes (peritoneal lavage),"[7]; FIG. 8B, 8C",significantly reduced
same,IL-1β release in the peritoneal lavage,[7]; FIG. 8D,decreased
same,IL-1β secretion,"NLRP1 inflammasome; N/TERT-1, talabostat 0, 20, 200 μM, 24 h, FIG. 25C",reduces IL-1β secretion
same,Potency in inhibiting NLRP1 inflammasomes compared with human ASC2,NLRP1 inflammasome; human skin cells (N/TERT-1),significantly more potent
same,Cell death (LDH release),[8],reduces cell death
same,IL-1β secretion triggered by ZIKV,Zika virus (ZIKV),substantially inhibited
